Results: US20250026816A1, “Antibodies for Use as Therapeutics Against Bacterial Infections” (priority 2021, published 2025)

Legend:
[1] = target: T1, Oxa-23 carbapenemase enzyme (Acinetobacter baumannii, UniProt Q9L4P2 18-273); assay: binding to Oxa-23 on A. baumannii OMVs; method not given at this place
T1 construct: No signal peptide cleavage site is stated; also called class D beta-lactamase; 30kD protein

Oxa-23 [2] = target: T2, Oxa-23 (Acinetobacter baumannii, UniProt Q9L4P2); assay: Specific binding to Oxa-23 on OMVs (summary statement); conditions: on outer membrane vesicles (OMVs) of Acinetobacter baumannii bacteria
T2 construct: endogenous in cells; host or cells: OMVs of GC2 A. baumannii clinical strains
T2 sequence (Q9L4P2 18-273): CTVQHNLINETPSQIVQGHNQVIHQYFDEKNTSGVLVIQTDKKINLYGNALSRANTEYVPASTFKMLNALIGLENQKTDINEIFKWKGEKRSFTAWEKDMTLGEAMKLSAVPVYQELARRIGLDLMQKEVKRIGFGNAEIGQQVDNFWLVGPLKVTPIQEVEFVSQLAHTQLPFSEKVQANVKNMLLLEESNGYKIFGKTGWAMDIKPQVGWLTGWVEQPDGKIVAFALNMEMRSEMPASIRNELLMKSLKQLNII

[3] = target: T1, Oxa-23 carbapenemase enzyme; assay: serological expression cloning: mAb screened on plaques of a phage expression library of A. baumannii genomic DNA (BAL 084, BAL 276), bound phage sequenced
OC1 LOS = assay: Western blot of extracted LOS; format: binding, Acinetobacter baumannii
Source text: (§1) Focusing on the cross-reactive mAbs identified, we used a phage expression library incorporating shotgun A. baumannii genomic DNA from strains BAL 084 and BAL 276. Because the mAbs could potentially bind a polypeptide epitope, we screened mAbs for reactivity with phage plaques from the phage expression library. Using this screening mechanism, we were able to identify individual phage binding to Abs 1348, 1349. By sequencing the phage, we were able to elucidate 1348 and 1349 bound Oxa-23, a class D […] that is a major group of enzymes involved in resistance to carbapenem antibiotics. That we have identified mAbs binding to Oxa-23 in a target agnostic screen is highly significant. […] Secondly, since Oxa-23 is a functional enzyme that inactivates carbapenem and carbapenem resistance is a major clinical issue for the treatment of nosocomial A. baumannii infection, it may be possible to block enzymatic function of Oxa-23 by mAbs and render A. baumannii susceptible to carbapenems. […] The LOS types were determined for a selection of isolates by OCL specific PCR. […] Next, LOS was extracted (with extensive proteinase K treatment to remove any proteins) and analyzed by Western blot using mAb 1042). […] Capsule antigens were extracted from selected strains bearing KL49 and analyzed by subsequent SDS-PAGE and Western blot analysis using the mAb 1416.

E. coli NCTC 13441 LPS = assay: Western blot of extracted LPS (control); format: binding; conditions: E. coli NCTC13441 (025b)
Source text: as §1

Oxa-23 [4] = target: T2, Oxa-23; assay: Phage expression library screen (serological expression cloning) for antigen identification; format: binding; conditions: phage expression library of genomic DNA from strains BAL 084 and BAL 276
Source text: The particular binding antigen (e.g. Oxa-23, OC1 LOS, or KL49) of an antibody may be determined using a phage expression library e.g. as described in Example 5. For example, shotgun A. Baumannii genomic DNA is incorporated into a phage expression library. The antibody is then screened for reactivity with phage plaques from the expression library and the individual phage binding to the antibody is identified. The identified phage is sequenced, and the sequencing information used to elucidate the binding antigen of the antibody. A suitable phage method for antigen identification will be known to a person skilled in the art. For example, a suitable phage method is described in Lodes M J, Dillon D C, Houghton R L, Skeiky Y A. Expression cloning. Methods Mol Med. 2004; 94:91-106. doi: 10.1385/1-59259-679-7:91. PMID: 14959824, the contents of which are incorporated by reference.
Focusing on the cross-reactive mAbs identified, we used a phage expression library incorporating shotgun A. baumannii genomic DNA from strains BAL 084 and BAL 276. […] The LOS types were determined for a selection of isolates by OCL specific PCR. […] Next, LOS was extracted (with extensive proteinase K treatment to remove any proteins) and analyzed by Western blot using mAb 1042). […] Capsule antigens were extracted from selected strains bearing KL49 and analyzed by subsequent SDS-PAGE and Western blot analysis using the mAb 1416.

T1 sequence (Q9L4P2 18-273 limits assumed): as the sequence (Q9L4P2 18-273) above

B1: Antibody 1550 (antibody, V domains shown)
VH: QVQLVESGGGVVQPGRSLRLSCAASGFTFSSYGMHWVRQAPGKGLEWVAVISYDGSNKYYADSVKGRFTISRDNSKNTLYLQMNSLRAEDTAVYYCAKESLTMVRGEGFDPWGQGTLVTVSS
VL: DIQMTQSPSSVSASVGDRVTITCRASQGISSWLAWYQQKPGKAPKLLIYAASSLQSGVPSRFSGSGSGTDFTLTISSLQPEDFATYYCQQANSFPCSFGQGTKLEIK
notes: also called PPB-1550
binding result [1]: binds
specific binding to Oxa-23 (Oxa-23 [2]): specifically bind to Oxa-23

B2: Antibody 1349 (antibody, V domains shown)
VH: QITLKESGPTLVKPTQTLTLTCTFSGFSLSTSGVGVGWIRQPPGKALEWLALIYWDDDKRYSPSLKSRLTITKDTSKNQVVLTMTNMDPVDTATYYCAHSYYYDSSDSYYFDYWGQGTLVTVSS
VL: DIQLTQSPSFLSASVGDRVTITCWASQGISSRLAWYQQKPGKAPKLLIYAASTLQSGVPSRFSGSGSGTEFTLTISSLQPEDFGNYYCQQFNTYPFTFGPGTKVDIKR
notes: It was expressed as human IgG1; also called PPB-1349
binding result [3]: binds

B3: Antibody 1042: anti-OC1 LOS antibody; VH SEQ ID No: 188, VL SEQ ID No: 191 (antibody, V domains shown)
VH: QITLKESGPTLVKPTQTLTLTCTFSGFSLSTSGVGVGWIRQPPGKALEWLAVIYWDDDKRYSPSLKSRVTITKDTSKNQVVLTMTNMDPVDTATYYCAHSYYHDSSDSYYFDYWAQGTLVTVSS
VL: DIQLTQSPSFLSASVGDRVTITCWASQGISSRLAWYQQKPGKAPKLLIYAASTLQSGVPSRFSGSGSGTEFTLTISSLQPEDFATYYCQQLTSYPFTFGPGTKVDIK
binding to extracted LOS (OC1 LOS; ATCC 17978 (OCL2)): no binding
binding to 10kD target in extracted LOS (OC1 LOS; OC1 isolates A. baumannii BAL_191, BAL_339, BAL_372): Specific binding
binding to extracted LPS (E. coli NCTC 13441 LPS): no binding

B4: Antibody 1348 (antibody, V domains shown)
VH: EVQLVESGGGFVQPGRSLRLSCIASGFTFDDYAMHWVRQTPGKGLEWVSVISWNSVSIGYADSVKGRFTISRDNAKNSLYLQMNSLRAEDTALYYCARYSSGPDAFDIWGQGTMVTVSS
VL: DIQMTQSPSSLSASVGDRVTITCRASQDIRNDLGWYQQKPGKAPKRLIYAASSLQSGVPSRFSGSGFGTEFTLTISSLQPEDFATYYCLQHYTYPPTFGGGTRVEIK
notes: Only variable domains are tied to 1348; also called PPB-1348
binding result [3]: binds

B5: 1540 (antibody, V domains shown)
VH: EVQLVESGGGFVQPGRSLRLSCIASGFTFDDYAMHWVRQTPGKGLEWVSVISWNSVSIGYADSVKGRFTISRDNAKNSLYLQMNSLRAEDTALYYCARYSSGPDAFDIWGQGTMVTVSS
VL: DIQMTQSPSSLSASVGDRVTITCRASQDIRNDLGWYQQKPGKAPKRLIYAASSLQSGVPSRFSGSGFGTEFTLTISSLQPEDFATYYCLQHYTYPPTFGGGTRVEIK
specific binding to Oxa-23 (Oxa-23 [2]): specifically bind to Oxa-23

B6: Antibody 1540 (antibody, V domains shown)
VH: EVQLVESGGGFVQPGRSLRLSCIASGFTFDDYAMHWVRQTPGKGLEWVSVISWNSVSIGYADSVKGRFTISRDNAKNSLYLQMNSLRAEDTALYYCARYSSGPDAFDIWGQGTMVTVSS
VL: DIQMTQSPSSLSASVGDRVTITCRASQDIRNDLGWYQQKPGKAPKRLIYAASSLQSGVPSRFSGSGFGTEFTLTISSLQPEDFATYYCLQHYTYPPTFGGGTRVEIK
notes: also called PPB-1540
binding result [1]: binds

B7: 1348 (antibody, V domains shown)
VH: EVQLVESGGGFVQPGRSLRLSCIASGFTFDDYAMHWVRQTPGKGLEWVSVISWNSVSIGYADSVKGRFTISRDNAKNSLYLQMNSLRAEDTALYYCARYSSGPDAFDIWGQGTMVTVSS
VL: DIQMTQSPSSLSASVGDRVTITCRASQDIRNDLGWYQQKPGKAPKRLIYAASSLQSGVPSRFSGSGFGTEFTLTISSLQPEDFATYYCLQHYTYPPTFGGGTRVEIK
antigen bound, elucidated by sequencing the binding phage (Oxa-23 [4]): bound Oxa-23
specific binding to Oxa-23 (Oxa-23 [2]): specifically bind to Oxa-23

B8: Antibody 1548 (antibody, V domains shown)
VH: QVQLVESGGGVVQPGRSLRLSCAASGFTFSSYAMHWVRQAPGKGLEWVAVISYDGSNKYYADSVKGRFTISRDNSKNTLYLQMNSLRAEDTAVYYCAGYGGNSLDPWGQGTLVTVSS
VL: AIQMTQSPSSLSASVGDRVTITCRASQGIRNDLVWYQQKPGKAPKVLIYDASSLQSGVPSRFSGSGFGTDFTLTISSLQPEDFATYYCLQDYNYPCSFGQGTKLEIK
notes: also called PPB-1548
binding result [1]: binds
specific binding to Oxa-23 (Oxa-23 [2]): specifically bind to Oxa-23
